Experimental data as given in PMC7408665.

Molecular target: anti-E7 mAb
Test: ELISA
Details: read off a plot

Row | Substance | response [OD450]
1 | recombinant His-E7 protein of HPV16 (from UniProt P03129) D36H | 1.3
2 | recombinant His-E7 protein of HPV16 (from UniProt P03129) E18Q | 1
3 | recombinant His-E7 protein of HPV16 (from UniProt P03129) L22A | 1
4 | recombinant His-E7 protein of HPV16 (from UniProt P03129) C24P | 1.3
5 | recombinant His-E7 protein of HPV16 (from UniProt P03129) E10Q | 1.1
